± gives the standard deviation of the averaged measurements.
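Note: ATP exposure 15 min at 22 °C before imaging.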

The subject of this series is ATP. Description: switch fluorescence ratio, 500 uM ATP over buffer (Cy3 cluster intensity, sum of 5 cycles each) (fold (ratio)); higher = stronger signal-on switching upon ATP binding; sequences stand for … in TCGTCGGCAGCGTCAGATGTGTATAAGAGACAGTTTTTTTTTTTTTTTTTTTTTTTTT…TC. To be noted: aptamer strand: ATP DNA aptamer (quencher-CACCTGGGGGAGTATTGCGGAGGAAGG + anchor), 100 nM annealed; ATP concentration: 500 uM. A digest of the protocol: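 The fluorescence ratio divides summed target-cycle Cy3 intensity by summed buffer-cycle Cy3 intensity for each cluster and is averaged per switch-domain sequence. Cy3-labelled switching-strand clusters on a modified Illumina MiSeq flow-cell were annealed to 100 nM quencher-labelled ATP aptamer, then imaged in selection buffer and again after 15 min with 500 uM ATP at 22 °C. Five such cycles were run, with NaOH stripping and re-annealing between them, and clusters outside 100-1000 RFU were excluded.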
As to AACTTTGGGG, the switch fluorescence ratio was 1.01 ± 0.068.

With TGCCGGGCTT, the switch fluorescence ratio was found to be 1.01 ± 0.042.

With CGGTGATGGG, the switch fluorescence ratio stood at 1.01 ± 0.031.

Consider ACGCTTTATG, for which the switch fluorescence ratio was 1.03 ± 0.04.

With ATTAGTGTTG, the switch fluorescence ratio was 0.956 ± 0.022.

On to GTCGACAGCG, for which the switch fluorescence ratio is 1.02 ± 0.035.

CCGGGTTTAG: the switch fluorescence ratio was determined as 1.03 ± 0.023.

For the sequence TTCTTTGGCA, the switch fluorescence ratio is 1.052 ± 0.0061.

For the sequence ACCTTTGGGC, the switch fluorescence ratio turned out to be 0.996 ± 0.039.

For GCTCGAGTGG, the switch fluorescence ratio was found to be 1.03 ± 0.053.

As to CATACGGGGG, the switch fluorescence ratio is 1.03 ± 0.025.

In the case of ATATTGTACG, the switch fluorescence ratio was 1.03 ± 0.022.

Regarding TTCGGAATTA, the switch fluorescence ratio is 0.995 ± 0.0066.

GATAGAAGGA: the switch fluorescence ratio was determined as 1.02 ± 0.033.

As for GAACTGGGGA, the switch fluorescence ratio was 0.984 ± 0.047.

As for ACACGTAGTT, the switch fluorescence ratio came out at 0.984 ± 0.021.

For TTCGTCTGCT, the switch fluorescence ratio is 1.02 ± 0.024.

As to GGTCGTGGCA, the switch fluorescence ratio worked out at 0.969 ± 0.028.

Regarding AGGTAGGGGA, the switch fluorescence ratio came to 1.01 ± 0.041.

On to AAGACTTAT, for which the switch fluorescence ratio was 1.01 ± 0.053.

In the case of GAGGGAAGAT, the switch fluorescence ratio is 0.999 ± 0.014.

In the case of AATGCTCGTA, the switch fluorescence ratio was found to be 1.01 ± 0.023.

For TGGGTCCAAA, the switch fluorescence ratio turned out to be 1.006 ± 0.0076.

For the sequence AGTATCATGT, the switch fluorescence ratio stood at 1.02 ± 0.063.

For CGGTAAGGGC, the switch fluorescence ratio stood at 0.966 ± 0.038.

In the case of AAACTCGCGC, the switch fluorescence ratio is 1.07 ± 0.012.

For TGGAAATAAA, the switch fluorescence ratio was determined as 0.9968 ± 0.0051.

Regarding TTAATGGGTT, the switch fluorescence ratio came out at 1.09 ± 0.14.

ACGAATCCTT: the switch fluorescence ratio was found to be 1.04 ± 0.013.

For the sequence CGGGATGTTG, the switch fluorescence ratio stood at 1.02 ± 0.035.

Consider ACTTTTACA, for which the switch fluorescence ratio was 1.155 ± 0.0053.

On to ACCTCCAACT, for which the switch fluorescence ratio was determined as 1.179 ± 0.0092.

As to CTCTATGTTA, the switch fluorescence ratio came out at 1.02 ± 0.076.

For the sequence AGTTACCTCT, the switch fluorescence ratio was found to be 1.03 ± 0.013.

Regarding TGCCGGGGAT, the switch fluorescence ratio is 1.01 ± 0.015.

With ATTTGCCGAC, the switch fluorescence ratio amounted to 0.975 ± 0.019.

Turning to ATTGGGTAGG, the switch fluorescence ratio amounted to 0.993 ± 0.025.

Regarding TGGTTCATGT, the switch fluorescence ratio came out at 0.9939 ± 0.008.

Turning to GTTAGGGCGT, the switch fluorescence ratio amounted to 1.01 ± 0.011.

ATCGTTACGA: the switch fluorescence ratio came to 1.02 ± 0.026.

Regarding GGGCCATGGA, the switch fluorescence ratio was 1.05 ± 0.099.

In the case of GTTTGTGGGT, the switch fluorescence ratio was found to be 0.977 ± 0.011.

On to TTTGAAATTA, for which the switch fluorescence ratio amounted to 0.9769 ± 0.003.

As for AAATAAAACT, the switch fluorescence ratio came to 1.1 ± 0.19.

For TGACGCAGGA, the switch fluorescence ratio worked out at 2.53 ± 1.8.

As to TTAAATGGG, the switch fluorescence ratio came out at 0.9799 ± 0.0063.

With ACGGTAGTTG, the switch fluorescence ratio worked out at 0.9851 ± 0.009.

TCCTGCAAGG: the switch fluorescence ratio was found to be 1.07 ± 0.05.

For CATTATGCGG, the switch fluorescence ratio was 1 ± 0.025.

For the sequence GCAAAGGGGG, the switch fluorescence ratio stood at 0.9758 ± 0.006.

As for CATGGGGGGG, the switch fluorescence ratio stood at 0.982 ± 0.043.

In the case of ATGGGGGCAG, the switch fluorescence ratio is 1.03 ± 0.027.

On to ACGTTGAGGG, for which the switch fluorescence ratio was found to be 1.06 ± 0.049.

On to TTTACGGGGA, for which the switch fluorescence ratio worked out at 1 ± 0.022.

As for GCATGAAGTA, the switch fluorescence ratio amounted to 0.99 ± 0.017.

In the case of ATACAAATTA, the switch fluorescence ratio is 1.01 ± 0.027.

For the sequence TCTGTGTTTT, the switch fluorescence ratio was found to be 1.04 ± 0.038.

In the case of GAAGGGGACT, the switch fluorescence ratio stood at 1.04 ± 0.076.

In the case of GAGGCAGGGA, the switch fluorescence ratio is 1.19 ± 0.16.

TTGACGTTTC: the switch fluorescence ratio amounted to 1.02 ± 0.033.

Take ATTACTAGTT: the switch fluorescence ratio stood at 0.9996 ± 0.0035.

AAAATCGCGT: the switch fluorescence ratio was found to be 0.998 ± 0.057.

As to TAAACGTCGA, the switch fluorescence ratio amounted to 0.962 ± 0.065.

Consider AGAAGGGGTT, for which the switch fluorescence ratio amounted to 1.04 ± 0.053.

For the sequence ATGATCGCGT, the switch fluorescence ratio turned out to be 1.01 ± 0.024.

Turning to GACCGGCATG, the switch fluorescence ratio stood at 1.01 ± 0.024.

In the case of CATATTGGTC, the switch fluorescence ratio worked out at 1 ± 0.062.

For ATACGAAGGA, the switch fluorescence ratio was determined as 1 ± 0.028.

On to AGATTGTTAG, for which the switch fluorescence ratio stood at 1.015 ± 0.0027.

As to ATTATAGTTT, the switch fluorescence ratio amounted to 1.03 ± 0.049.

Regarding TTGTGCAAGT, the switch fluorescence ratio was found to be 1.01 ± 0.013.

Take AACGACGACG: the switch fluorescence ratio was found to be 1.16 ± 0.05.

As for TGGTGATGCA, the switch fluorescence ratio came to 1.08 ± 0.11.

Regarding AGCCGCTCGT, the switch fluorescence ratio stood at 0.99 ± 0.033.

For the sequence TTTCATACGG, the switch fluorescence ratio was determined as 1.008 ± 0.0034.

With AGGTTAATTT, the switch fluorescence ratio came out at 1.01 ± 0.046.

Take CCCGTGGGGA: the switch fluorescence ratio was determined as 1.2 ± 0.15.

As for TTCCTGGCAT, the switch fluorescence ratio turned out to be 1.45 ± 0.42.

These data come from the supplement of paper PMC10126150.
